Experimental data: the nanobody polyreactivity screen of Harvey et al. (2022)

Assay: yeast display, Sf9 membrane polyspecificity reagent, FACS + sequencing; frameworks hold sequencing errors
Summary of the method: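 Sorting gates, low and high (top ~1%), were placed on anti-HA fluorescence to track expression and on streptavidin fluorescence to track reagent binding. A clone's polyreactivity label is taken from the gate it came out of. The reagent was 10% biotinylated, detergent-solubilized Sf9 membrane, applied for 1 hour at 4 °C to galactose-induced yeast display cells.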

Sequence	polyreactivity (PSR sort gate)
QVQLVESGGGLVQAGGSLRLSCAASGRIFGVYAMGWYRQAPGKERELVASITGSGGRTYYADSVKGRFTISRDNAKNTVYLQMNSLKPEDTAVYYCAAKWGTRLAQQKSYGYWGQGTQVTVSS	high polyreactivity
QLQLVESGGGLVQAGGSLRLSCAASGSNISYYAMGWSRQAPGKERELVAAISKRGASTYYADSVKGRFTISRDKAKNTVFLQMNSLKPEDTAVYYCAAYRQGSAYDYWGQGTQVTVSS	high polyreactivity
QVQLVESGGGLVQAGGSLRLSCAASGRNFYAYAMGWYRQAPGKERELVAGITYSGSSTYYADSVKGRFTISRDNAKNTVYLQMNSLKPEDTAVYYCAADLTRVLRYNYWGQGTQVTVSS	low polyreactivity
QVQLVESGGGLVQAGGSLRLSCAASGRTSPVYAMGWYRQAPGKERELVAAIRGGARTYYADSEKGRFTISRDNAKNTVYLQMNSLKPEDTAVYYCATGSRYRLGPGDSWGQGTQGTVSS	high polyreactivity
QVQLVESGGGLVQAGGSLRLSCAAYGRIFSRYAMGWYRQAPGKERELVAAISSSGTTTYYADSVNGRFTISRDTAKNTVYLQMNSLKPEDTAVYSCATSAVRHIYWGQGTQVTVSS	high polyreactivity
QVQLVESGGGLVQAGGSLRLSCAASGLIFTWNAMGWYRQATGKERELVAAISTGGSTSYADSVKGRFTISRDNAKNTVYLQMNSLKPEDTAVYYCARDSSIWSHGSWYDYWGQGTQVTVSS	low polyreactivity
QVQLVESGGGLVQAGCSLRLSCAASGFTFRYYAMGSYRQAPGKERELVSAISQSGGLTFYADSVKGRFTISRDNAKITVYLQMNSLKPVDTAVFYCAAGRRTYPSKYGSWGQGSQVTVSS	high polyreactivity
QVQLVESGAGLVQARGSLRLSCAASGIILYVNAMGWYRQAPGKERELVAAISWGGGSTYYADSVKGRFTISRDNAKNNVYLQMNSLKPEDTAVYYCAAEFWSGYPTYTYDFWGQGTQVTVSS	low polyreactivity
QVQLVESGGGLVQAGGSLRLSCAASGTIFPGYTIGWYRQAPGKEREFVAAISRRGGSTYYADSVKGRFTISRDNAKNTVYLQMNSLKPEDTAVYYCPKVPDYRFEYWGQGTLVTVSS	high polyreactivity
QVQLVESGGGLVQAGGSLRLSCAASGSTFGINDMGWSRQAPGKEREFVAAISSTTDSTRYADSVKGRFTISRDNAKNTVYLQMNSLKPEDTAVYYCAAAPQFTFGVGYWGQGTQVTVSS	low polyreactivity
QVQLVESGGGLVQAGGSLRLSCAASGRTFDHYAMGWYRQAPGKERELVAAITSGGSTYYADSVKGRFTISRDNAKNTVYLQMNSLKPEDTAVYYCNKDSSFWGCYIAQVNERDYWGQGTQVTVSS	low polyreactivity
QVHLVESGGGLVQAGGSLRLSCASSGSTFRSYGMGWYRPAPGKERELVAAISSSGGSTYYADSVKGRFTISRDNAKNTVYLQMNSLKPEDSAVYYCAAGSRLVSARLYYWGQGTQVTVSS	high polyreactivity
QVQLVESGGGLVQAGGSLRLSCAASGRTSAKYAMGWYRQAPGKERELVAVITKNSGSTYYADSVKGRFTISRDNAKNTVYLQMNSLKPEDTAVYYCNRVPRGINRQSRPEDYWGQGTQVTVSS	high polyreactivity
QVQLVESGGGLVQAGGSLRLSCAASGNIFKQYTMGWYRQAPGKERELVAAIRSRGGSTYYADSVKGRLTISRDNAKNTVYLQMNSLKPEDTAVYYCAKVLGRTTLRMDYWGQGPQVTVSS	high polyreactivity
QVQLVESGGGLVQAGGSLRLTCAASGFIFRYYAMGWYRPATGKEMELVAAISRGGSTNYADSVKGRFTISRDNAKYTVYLQMNSLKPEDTAVYYCASRKGRSKQGYYYWGQGTQVTVSS	high polyreactivity
QVQLVESGGGLVQAGGSLRLSCAASGIIFAWNVRGWYRQAPGKERELVAAITQSGGGTYYADSVKGRFTISRDNAKNTVYLLMYSLKPEDTGFYYCAAVGYQFYRYVWVDEFDSWGQGTQVTVSS	low polyreactivity

Sequence	polyreactivity (PSR sort gate)
QVQLVESGGGLVQAGGSLRLICAASGFTFCLYAMGWYRQAPGKERELVADIDWDGGTYYADSVKGRFTISRDNAKNTVYLQMNSLKPEDTAVYYCAAELTEWTNGFDYWGQGTQETVSS	high polyreactivity
QVQLVESGGGLVQAGGSLRLSCAASGFTFPRYVMGWYRQAPGKEREFVAAITFSGGSTYYADSVKGRFTNSRDNAKNTVYLQMNSLKPEDTAVYYCAAGASLWRLGLKMGYWGQGTQVTVSS	low polyreactivity
QVQLVESGGGLVQAGGSLRLSCAASGFIIPGYAMGWYRQAPGKERELVAAISSGTSTYYADSVKGRFTISRDNAKNTVYLQMNSLKPEDTAVYYCAAETWYRFGYWGQGTQVTVSS	low polyreactivity
QVQLVESGGGLVQAGGSLRLSCAASGRIFRYYTMGWYRQAHGKEREFVATITSSGGSTNYADSVKGRFTISRDNAKNSVYIQTNSLKPEDTAVYYCAKTSRAPWDGYYWGEGTQVTVSS	low polyreactivity
QVQLVESGGGLVQAGGSLRLSCAASGSILQQIYAMGWYRPAPGKERELVAAISASGGSTYYADSVKGRFTISRDNAKNTVYLQMNSLKPEDTAVYYCNKVGYYASVLGYDYWGQGTQVTVSS	high polyreactivity
QVQLVESGGGKVQAGGSLRLSCAASGRTFRWYAMGWYRQAPGKERELVAAITSSSSTNYADSVKGRFTISRDNAKNTVYLQMNSLKPEDTAVYYCAKGWNWYDLGESGYWGQGTQVTVSS	low polyreactivity
QVQLVESGGGLVQAGGSLRLSCAASGSTFLDYAMGWYRQAPGKDRELVAAISTDDSSTYYADSVKGRFTISRDNAKNTVYLQMNSLKPEDTAVYYCAADDRDWVNFDYWGQGTQVTVSS	low polyreactivity
QVQLVESGGGLVQAGGSLRLSCAASGRTFRWYAMGWYRQAPGKERELVASITWSGGSTYYADSVKGRFTISRDNAKNTVYLQMNSLKPEDTAVYYCNRVLVVSMYEGNYWGQGTQVTVSS	high polyreactivity
QVQLVESGGGLVQAGGSLRLSCAASGSIFSRYTMGWYRQAPGKERELVAAITSSGVSTYYADSVKGRFTISRDNAKNTVYLQMNSLKPEDTAVYYCAAYSVFRSYDYWGQGTQVTVSS	high polyreactivity
QVQLVESGGGLVQAGGSLRLSCAASGSIFYSYAMGRYRQAPGKERELVAAITKSSGSTYYADSVKGRFTISRDNAKNTVYLQMNSLKPEDTAVYYCAATRYRPVRLYYWGQGTQVTVSS	high polyreactivity
QVQLVESGGGLVQAGGSLRLSCAASGRISTRYTMGWYRQAPRKERELVAAISGNAGRTYYADSVKGRFTISRDNAKNTVYLEMNSLKPADTAVYYCARESGYRAYEIQFYYWGQGTQVTVSS	high polyreactivity
QVQLEESGGGLVQAGGSLRLSCAASGFTFYDYAMVWYRQAPGKERELVAAIRRSGTRTYYADSVKGRFTISRDNAKNTVYLQINSLKPEDTAVYYCAARYSYTHQRDYWGQGTLVTVSS	high polyreactivity
QVQLVESGGGLVQAGGSLRLSCAASGFIFRDNAMGWYRQAPGKERELVAAISKSGGRTYYADSVKGRFTISRDNAKNTVYLQMNCLKPEDTAVYYCAADAYHFGRMDYWGQGTQVTVSS	high polyreactivity
QVQLVESGGGLVQAGGSLRLSCAASGFIFSPNAMGWYRQAPGKEREFVAAIRYSGTSTSYADSVKGRFTISRDNAKNTVYLQMNSLKPEDTAVYYCNAQWRFSRGYTYNYWGQGTQVTVSS	high polyreactivity
QVQLVESGGGLVQAGGSLRLSCAASGIIFRVNAMGWYRQAPGKERELVAAISSGGRTYYADSVKGRFTISGDNAKNTVSLQMNSLKPEDTAVYYCNAGRLRYIFKSYDYWGQGTQVSVSS	high polyreactivity
QVQLVESGGGLVQAGGSLPLSCAASGIIFPYNAMGWSRQAPGKERELVAAITGGGSTYYADSVKGRFTISRDNAKNTVYLPMNSLKPEDSAVYYCAADGSGPGYDYWGQGTQVTVSS	low polyreactivity
